From patent publication US20230193409A1

B1: Leptotrichia buccalis Cas13a (protein)
chain: MKVTKVGGISHKKYTSEGRLVKSESEENRTDERLSALLNMRLDMYIKNPSSTETKENQKRIGKLKKFFSNKMVYLKDNTLSLKNGKKENIDREYSETDILESDVRDKKNFAVLKKIYLNENVNSEELEVFRNDIKKKLNKINSLKYSFEKNKANYQKINENNIEKVEGKSKRNIIYDYYRESAKRDAYVSNVKEAFDKLYKEEDIAKLVLEIENLTKLEKYKIREFYHEIIGRKNDKENFAKIIYEEIQNVNNMKELIEKVPDMSELKKSQVFYKYYLDKEELNDKNIKYAFCHFVEIEMSQLLKNYVYKRLSNISNDKIKRIFEYQNLKKLIENKLLNKLDTYVRNCGKYNYYLQDGEIATSDFIARNRQNEAFLRNIIGVSSVAYFSLRNILETENENDITGRMRGKTVKNNKGEEKYVSGEVDKIYNENKKNEVKENLKMFYSYDFNMDNKNEIEDFFANIDEAISSIRHGIVHFNLELEGKDIFAFKNIAPSEISKKMFQNEINEKKLKLKIFRQLNSANVFRYLEKYKILNYLKRTRFEFVNKNIPFVPSFTKLYSRIDDLKNSLGIYWKTPKTNDDNKTKEIIDAQIYLLKNIYYGEFLNYFMSNNGNFFEISKEIIELNKNDKRNLKTGFYKLQKFEDIQEKIPKEYLANIQSLYMINAGNQDEEEKDTYIDFIQKIFLKGFMTYLANNGRLSLIYIGSDEETNTSLAEKKQEFDKFLKKYEQNNNIKIPYEINEFLREIKLGNILKYTERLNMFYLILKLLNHKELTNLKGSLEKYQSANKEEAFSDQLELINLLNLDNNRVTEDFELEADEIGKFLDFNGNKVKDNKELKKFDTNKIYFDGENIIKHRAFYNIKKYGMLNLLEKIADKAGYKISIEELKKYSNKKNEIEKNHKMQENLHRKYARPRKDEKFTDEDYESYKQAIENIEEYTHLKNKVEFNELNLLQGLLLRILHRLVGYTSIWERDLRFRLKGEFPENQYIEEIFNFENKKNVKYKGGQIVEKYIKFYKELHQNDEVKINKYSSANIKVLKQEKKDLYIRNYIAHFNYIPHAEISLLEVLENLRKLLSYDRKLKNAVMKSVVDILKEYGFVATFKIGADKKIGIQTLESEKIVHLKNLKKKKLMTDRNSEELCKLVKIMFEYKMEEKKSEN

Assays:
AcrVIA1-3xFLAG [1] = tested on: T1, AcrVIA1-3xFLAG
T1 sequence: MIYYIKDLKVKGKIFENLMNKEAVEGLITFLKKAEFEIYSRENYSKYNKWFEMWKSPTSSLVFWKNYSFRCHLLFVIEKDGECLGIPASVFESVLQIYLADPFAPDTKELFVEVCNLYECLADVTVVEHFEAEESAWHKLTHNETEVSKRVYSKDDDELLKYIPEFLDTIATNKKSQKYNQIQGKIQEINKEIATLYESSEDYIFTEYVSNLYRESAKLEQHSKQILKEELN

AcrVIA1 [2] = tested on: T2, AcrVIA1
T2 sequence: T1 sequence

AcrVIA1-3xFLAG [3] = molecular target: T3, AcrVIA1-3xFLAG
T3 chain: T1 sequence

AcrVIA1 [4] = molecular target: T4, AcrVIA1
T4 chain: T1 sequence

Molecule | cis- and trans-RNA cleavage in vitro (FIG. 2A-B) (AcrVIA1-3xFLAG [1]) | cis-RNase activity: cleavage of radiolabeled target RNA in vitro (AcrVIA1 [2]) | nonspecific cleavage of labeled non-target RNA, AcrVIA1 added before target RNA ("Acr first" lane) (AcrVIA1 [2]) | trans-cleavage of a labeled non-target RNA upon addition of unlabeled protospacer RNA in vitro (AcrVIA1 [2]) | cis-RNA cleavage of spc2-target RNA by L. buccalis Cas13a (10 nM) with AcrVIA1-3xFLAG at 400, 100, 10 or 1 nM (AcrVIA1-3xFLAG [3]) | cis-RNA cleavage of spc2-target RNA by L. buccalis Cas13a (10 nM) with AcrVIA1 at 400, 100, 10 or 1 nM (AcrVIA1 [4])
L. seeligeri Cas13a-His6 | confirmed that both are active in vivo ... and in vitro (FIG. 2A-B) | In the presence of excess AcrVIA1, however, target RNA cleavage was inhibited | if the AcrVIA1 inhibitor is added to the reaction containing Cas13 before adding the target RNA, then AcrVIA1 prevents target RNA binding and no Cas13 activity is observed | AcrVIA1 inhibited Cas13a-mediated trans-cleavage of a labeled non-target RNA | – | –
B1 | – | – | – | – | AcrVIA1 does not inhibit Leptotrichia buccalis Cas13a | Addition of AcrVIA1 had no effect on protospacer RNA cleavage by purified L. buccalis Cas13a^crRNA
